The results in this text go back to US20240124563A1 (NANJING ZAIMING PHARMACEUTICAL, published 2024).

Assay [1] has as its target T1, human MSLN-R3-his protein (human, UniProt Q13421 487-598).
T1 construct: also called hMSLN-R3-his; not shown: histidine tag
The assay can be described thus: ELISA, coated antigen, 0 nM antibody (blank). (In general: In an ELISA, binding on a coated surface is turned into a signal by an enzyme label.)

Assay [2] concerns the target T1, human MSLN-R3-his protein. The assay can be described thus: ELISA, coated antigen, 10 nM antibody.
In assay [3] the target is T1, human MSLN-R3-his protein. The assay is described as follows: ELISA, coated antigen, 100 nM antibody.
Assay [4] has as its target T1, human MSLN-R3-his protein. The assay is described as follows: ELISA, coated antigen, 0.001 nM antibody.
Assay [5] has as its target T2, human MSLN-R2-his protein (human, UniProt Q13421 391-486).
T2 construct: also called hMSLN-R2-his; not shown: histidine tag
The assay is described as follows: ELISA, coated antigen, 20 nM antibody.

In assay [6] the target is T1, human MSLN-R3-his protein. The assay is described as follows: ELISA, coated antigen, 20 nM antibody.
Assay [7] addresses T2, human MSLN-R2-his protein. The assay is described as follows: ELISA, coated antigen, 0.2 nM antibody.
For assay [8], the target named is T1, human MSLN-R3-his protein. The assay is described as follows: ELISA, coated antigen, 0.2 nM antibody.
Assay [9] has as its target T1, human MSLN-R3-his protein. The assay is described as follows: ELISA, coated antigen, 0.1 nM antibody.
Assay [10] has as its target T1, human MSLN-R3-his protein. The assay is described as follows: ELISA, coated antigen, 1 nM antibody.
In assay [11] the target is T1, human MSLN-R3-his protein. The assay is described as follows: ELISA, coated antigen, 0.0001 nM antibody.
Assay [12] deals with T1, human MSLN-R3-his protein. The assay is described as follows: ELISA, coated antigen, 0.01 nM antibody.
For assay [13], the target named is T3, chimeric human MSLN-R3 / chicken MSLN-R1-2 protein on HEK293T cells (clone A5) (chicken; human).
T3 construct: range 327-514; Human R1-R2 replaced by chicken R1-R2; also called HEK293T-chickR1-2/hR3-A5; HEK293T-hR3/chickR1-2-A5
T3 sequence (Q13421 495-614, change not shown): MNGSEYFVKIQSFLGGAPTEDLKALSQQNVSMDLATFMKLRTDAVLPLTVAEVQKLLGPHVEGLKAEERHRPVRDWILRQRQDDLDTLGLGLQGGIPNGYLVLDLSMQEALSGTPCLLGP
The assay is described as follows: FACS, HEK293T-hR3/chickR1-2-A5 cells, antibody 0.2 nM. For orientation: A flow cytometer gives signals particle by particle.

Assay [14] deals with T3, chimeric human MSLN-R3 / chicken …. The assay is described as follows: FACS, HEK293T-hR3/chickR1-2-A5 cells, antibody 20 nM.
Assay [15] has as its target T4, human MSLN-R2-his protein (human, UniProt Q13421 391-486).
T4 construct: MSLN-R2 = Ser391-Asn486; also called hMSLN-R2-his; not shown: histidine tag
The assay can be described thus: ELISA, antibody 0.0001 nM.

The target in assay [16] is T4, human MSLN-R2-his protein. The assay is described as follows: ELISA, antibody 0 nM (blank).
The target of assay [17] is T4, human MSLN-R2-his protein. The assay can be described thus: ELISA, antibody 0.001 nM.
Assay [18] has as its target T5, human MSLN-R3-his protein (human, UniProt Q13421 487-598).
T5 construct: MSLN-R3 = Met487-Ser598; also called hMSLN-R3-his; not shown: histidine tag
The assay is described as follows: ELISA, antibody 0.0001 nM.

In assay [19] the target is T5, human MSLN-R3-his protein. The assay is described as follows: ELISA, antibody 1 nM.
Assay [20] concerns the target T4, human MSLN-R2-his protein. The assay can be described thus: ELISA, antibody 10 nM.
For assay [21], the target named is T5, human MSLN-R3-his protein. The assay can be described thus: ELISA, antibody 10 nM.
Assay [22] has as its target T5, human MSLN-R3-his protein. The assay can be described thus: ELISA, antibody 0.001 nM.
In assay [23] the target is T5, human MSLN-R3-his protein. The assay can be described thus: ELISA, antibody 0.1 nM.
Assay [24] deals with T5, human MSLN-R3-his protein. The assay is described as follows: ELISA, antibody 100 nM.
For assay [25], the target named is T4, human MSLN-R2-his protein. The assay can be described thus: ELISA, antibody 0.1 nM.
Assay [26] deals with T4, human MSLN-R2-his protein. The assay can be described thus: ELISA, antibody 100 nM.
The target in assay [27] is T6, human MSLN-R3-3 polypeptide (purchased from GL Biochem, Cat. No. 406676) (human).
T6 construct: Printed as Val539-Val588; also called hMSLN-R3-3
T6 peptide: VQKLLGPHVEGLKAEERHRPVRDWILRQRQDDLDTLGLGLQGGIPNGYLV
The assay can be described thus: ELISA, antibody 1 nM.

For assay [28], the target named is T4, human MSLN-R2-his protein. The assay is described as follows: ELISA, antibody 1 nM.
For assay [29], the target named is T5, human MSLN-R3-his protein. The assay can be described thus: ELISA, antibody 1 nM. The source holds these as a separate data set.
The target of assay [30] is T5, human MSLN-R3-his protein. The assay is described as follows: ELISA, antibody 0.01 nM.
Assay [31] deals with T4, human MSLN-R2-his protein. The assay is described as follows: ELISA, antibody 0.01 nM.
Assay [32] addresses T5, human MSLN-R3-his protein. The assay is described as follows: ELISA, antibody 0 nM (blank).
The target in assay [33] is T4, human MSLN-R2-his protein. The assay is described as follows: ELISA, antibody 1 nM. The source holds these as a separate data set.

B1: Tab106 (YP218, hIgG1) (antibody, V domains shown)
VH: QQQLEESGGGLVKPEGSLTLTCKASGFDLGFYFYACWVRQAPGKGLEWIACIYTAGSGSTYYASWAKGRFTISKASSTTVTLQMTSLAAADTATYFCARSTANTRSTYYLNLWGPGTLVTVSS
VL: DVVMTQTPASVSEPVGGTVTIKCQASQRISSYLSWYQQKPGQRPKLLIFGASTLASGVPSRFKGSGSGTEYTLTISDLECADAATYYCQSYAYFDSNNWHAFGGGTEVVVRT
notes: also called YP218 human IgG1 antibody
Take B1: the OD450 nm was found to be 0.05 OD450 nm in [1]; 1.04 OD450 nm in [2]; 1.81 OD450 nm in [3]; 0.05 OD450 nm in assay [4]; 1.44 OD450 nm in assay [5]; 1.89 OD450 nm in [6]. The OD450 nm in [7] turned out to be 0.13 OD450 nm; in assay [8], 0.87 OD450 nm; in assay [9], 0.07 OD450 nm; in assay [10], 0.22 OD450 nm; in assay [11], 0.05 OD450 nm; in assay [12], 0.05 OD450 nm.

B2: Tab106 (YP218, hIgG1) (antibody, V domains shown)
VH: QQQLEESGGGLVKPEGSLTLTCKASGFDLGFYFYACWVRQAPGKGLEWIACIYTAGSGSTYYASWAKGRFTISKASSTTVTLQMTSLAAADTATYFCARSTANTRSTYYLNLWGPGTLVTVSS
VL: DVVMTQTPASVSEPVGGTVTIKCQASQRISSYLSWYQQKPGQRPKLLIFGASTLASGVPSRFKGSGSGTEYTLTISDLECADAATYYCQSYAYFDSNNWHAFGGGTEVVVRT
notes: as for B1
Regarding B2, the values for the MFI in assay [13] and in assay [14] were 767 and 17900, respectively.

B3: Tab106 (YP218, hIgG1) (antibody, V domains shown)
VH: QQQLEESGGGLVKPEGSLTLTCKASGFDLGFYFYACWVRQAPGKGLEWIACIYTAGSGSTYYASWAKGRFTISKASSTTVTLQMTSLAAADTATYFCARSTANTRSTYYLNLWGPGTLVTVSS
VL: DVVMTQTPASVSEPVGGTVTIKCQASQRISSYLSWYQQKPGQRPKLLIFGASTLASGVPSRFKGSGSGTEYTLTISDLECADAATYYCQSYAYFDSNNWHAFGGGTEVVVRT
notes: also called YP218 human IgG1 antibody; anti-human MSLN-R3 antibody (Tab106)
Turning to B3, the OD450 nm in assay [15] turned out to be 0.04; in assay [16], 0.05; in [17] it was 0.04; in [18] it was 0.05; in [19], 0.62; in assay [20] it was 0.11. The OD450 nm in assay [21] turned out to be 1.75; in assay [22], 0.05; in assay [23], 0.12; in [24], 2.29; in assay [25] it was 0.05; in assay [26], 0.7. Further, the OD450 nm in assay [27] was 0.98; in assay [28] it was 0.05; in assay [29] it was 0.62; in assay [30], 0.06; in [31], 0.04; in assay [32] it was 0.05. The OD450 nm in assay [33] is 0.05.

B4: Tab020 (YP223, rabbitIgG1) (antibody, V domains shown)
VH: QEQLEESGGDLVQPEGSLTLTCKASGLDFSSSYWICWVRQAPGKGLEWIGCRHTFTANTWSASWVNGRFTISRSTSLGTVDLKMTSLTAADTATYFCARDESNNDGWDFKLWGPGTLVTVSS
VL: AYDMTQTPASVSAAVGGTVTIKCQASQSISNYLAWYQQKPGQPPKLLIYQASTLAPGVSSRFKGSGSGTEFTLTISGVECADAATYYCQQGYTSSNVENVFGGGTGVVVGD
notes: also called YP223 rabbit IgG1 antibody; rabbit anti-human MSLN antibody (Tab020)
For the molecule B4, the OD450 nm in assay [15] turned out to be 0.05; in [16] it was 0.05; in [17] it was 0.05; in assay [18], 0.05; in assay [19] it was 0.05; in [20] it was 2.01. Moreover, the OD450 nm stood at 0.05 in [21]; 0.05 in assay [22]; 0.05 in [23]; 0.05 in assay [24]; 0.2 in [25]; 2.5 in assay [26]. Besides, the OD450 nm in assay [27] stood at 0.09; in assay [28], 1.49; in [29] it was 0.05; in [30], 0.05; in assay [31], 0.07; in [32] it was 0.05. This molecule also came in with an OD450 nm in [33] of 1.49.
